Experimental data taken from patent US20100104554A1 (FUSION ANTIBODIES LIMITED A CORPORATION OF GREAT BRITIAN, published 2010).

Columns and labels:
[1] = target: T1, human cathepsin V (Calbiochem) (human, UniProt O60911 114-334); assay: fluorometric enzyme inhibition assay with Z-Phe-Arg-AMC, non-linear regression of progress curves
T1 construct: also called CatV; Cat V
Method: (§1) Enzymatic assays were used to ascertain the ability of the rCatSPP to inhibit the peptidolytic activity of human cathepsins S, L, K, V and B (Calbiochem). Assays were performed in triplicate in 96-well microtitre plates in the presence of 100 mM sodium acetate, 1 mM ethylenediaminetetraacetate (EDTA), 0.1% Brij and 1 mM: dithiothreitol (DTT) at pH 5.5. CatS activity was monitored using the fluorigenic substrate carbobenzloxy-L-valinyl-L-vahnyl-L-arginylamido-4-methyl coumarin (Z-Val-Val-Arg-AMC, 25 μM), assays for cathepsins L, K and V were performed using carbobenzloxy-L-phenylalanyl-L-arginylamido-4-methyl coumarin (Z-Phe-Arg-AMC, 25 μM) and assays for CatB were performed using carbobenzloxy-L-arginylamido -L-arginylamido-4-methyl coumarin (Z-Arg-Arg-AMG, 25 μM) as substrates. Purified rCatSPP was added to assays as required at various concentrations (0-1000 nM). All experiments were performed using a Cytofluor® 4000 spectrofluorimeter with excitation at 395 nm and emission at 460 nm. To confirm that the rCatSPP-Fc also had the ability to inhibit the activity of CatS, flurometric assays were performed using CatS, Z-Val-Val-Arg-AMC, 25 μM) in the presence of the rCatSPP-Fc (0 nM-200 nM).
(§2) Fluorescence was monitored for 30 mins and the RFU plotted over time to generate fluorometric progress curves. […] All fluorometric assays were performed in replicates of three.

[2] = target: T2, human cathepsin K (Calbiochem) (human, UniProt P43235 115-329); assay: as above
T2 construct: also called CatK; Cat K
T2 sequence (looked up): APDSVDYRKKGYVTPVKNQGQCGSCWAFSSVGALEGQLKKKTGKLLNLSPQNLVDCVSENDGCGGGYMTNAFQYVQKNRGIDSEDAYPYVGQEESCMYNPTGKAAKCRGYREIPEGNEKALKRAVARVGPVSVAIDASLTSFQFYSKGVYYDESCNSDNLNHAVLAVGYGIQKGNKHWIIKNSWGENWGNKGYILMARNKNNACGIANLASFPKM
Method: as §1, §2

[3] = target: T3, human cathepsin L (Calbiochem) (human, UniProt P07711 114-333, limits assumed); assay: as above
T3 construct: also called CatL; Cat L
Method: as §1, §2

[4] = target: T4, human cathepsin S (Calbiochem) (human, UniProt P25774 115-331); assay: cell-based or functional assay
[5] = target: T4, human cathepsin S (Calbiochem); assay: fluorometric enzyme inhibition assay with Z-VVR-AMC, rates taken from progress curves
Method: as §1, with “To confirm that the rCatSPP-Fc also had the ability to inhibit the activity of CatS, flurometric assays were performed using CatS, Z-Val-Val-Arg-AMC, 25 μM) in the presence of the rCatSPP-Fc (0 nM-200 nM).” left out
The inhibition of CatS peptidolytic activity using CatSPP Fc was measured. The rCatSPP-Fc was assessed by fluorometric assay using the fluorogenic substrate Z-VVR-AMC to determine if the species had the ability to retain its inhibition of CatS after the addition of the Fc-domain without any negative effects on the kinetics. […]

T1 sequence (O60911 114-334 limits assumed): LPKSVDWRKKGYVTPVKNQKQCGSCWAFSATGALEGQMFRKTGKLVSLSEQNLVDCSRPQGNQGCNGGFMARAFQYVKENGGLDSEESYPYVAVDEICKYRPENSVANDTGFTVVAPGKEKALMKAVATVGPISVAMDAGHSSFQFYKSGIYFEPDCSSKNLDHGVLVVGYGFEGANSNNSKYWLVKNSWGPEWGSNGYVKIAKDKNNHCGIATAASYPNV
T3 sequence (P07711 114-333 limits assumed): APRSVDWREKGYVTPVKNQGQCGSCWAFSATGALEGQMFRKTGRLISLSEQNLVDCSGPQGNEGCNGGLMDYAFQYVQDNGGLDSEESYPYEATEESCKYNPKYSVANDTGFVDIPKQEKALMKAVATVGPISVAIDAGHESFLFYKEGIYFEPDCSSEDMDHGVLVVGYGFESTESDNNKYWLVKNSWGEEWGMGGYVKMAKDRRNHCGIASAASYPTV

B1: recombinant human cathepsin S propeptide (residues 17-113) with N-terminal hexahistidine tag, expressed from pQE30 (peptide)
chain: MRGSHHHHHHGSQLHKDPTLDHHWHLWKKTYGKQYKEKNEEAVRRLIWEKNLKFVMLHNLEHSMGMHSYDLGMNHLGDMTSEEVMSLTSSLRVPSQWQRNITYKSNPNRVDLQPSLIS
notes: also called rCatSPP; CatSPP
- Ki [1]: 4.8 nM
- Ki [2]: 17.6 nM
- Ki [3]: 0.62 nM
- EC50 of MDA-MB-231 tumour cell invasion (modified Boyden chamber, Matrigel) [4]: 78 nM

B2: recombinant cathepsin S propeptide with C-terminal IgG2 Fc domain and N-terminal His-tag, expressed from pRSET A-Fc (Fc fusion)
chain: QLHKDPTLDHHWHLWKKTYGKQYKEKNEEAVRRLIWEKNLKFVMLHNLEHSMGMHSYDLGMNHLGDMTSEEVMSLMSSLRVPSQWQRNITYKSNPNR
notes: About 46 kDa, made in E. coli BL21 (DE3) pLysS; also called rCatSPP-Fc; CatSPP-Fc; not shown: N-terminal His-tag and leader from the pRSET A vector; IgG2 Fc domain engineered into the pRSET vector
- EC50 of MDA-MB-231 tumour cell invasion (modified Boyden chamber, Matrigel) [4]: 8.3 nM
- Ki [5]: 8.9 nM
